Data published in patent US20120213794A1 (published 2012).

molecular target: human PCSK9 (human, UniProt Q8NBP7 31-692); experiment: cell-based or functional assay
Target sequence in this assay (Q8NBP7 31-692 limits assumed): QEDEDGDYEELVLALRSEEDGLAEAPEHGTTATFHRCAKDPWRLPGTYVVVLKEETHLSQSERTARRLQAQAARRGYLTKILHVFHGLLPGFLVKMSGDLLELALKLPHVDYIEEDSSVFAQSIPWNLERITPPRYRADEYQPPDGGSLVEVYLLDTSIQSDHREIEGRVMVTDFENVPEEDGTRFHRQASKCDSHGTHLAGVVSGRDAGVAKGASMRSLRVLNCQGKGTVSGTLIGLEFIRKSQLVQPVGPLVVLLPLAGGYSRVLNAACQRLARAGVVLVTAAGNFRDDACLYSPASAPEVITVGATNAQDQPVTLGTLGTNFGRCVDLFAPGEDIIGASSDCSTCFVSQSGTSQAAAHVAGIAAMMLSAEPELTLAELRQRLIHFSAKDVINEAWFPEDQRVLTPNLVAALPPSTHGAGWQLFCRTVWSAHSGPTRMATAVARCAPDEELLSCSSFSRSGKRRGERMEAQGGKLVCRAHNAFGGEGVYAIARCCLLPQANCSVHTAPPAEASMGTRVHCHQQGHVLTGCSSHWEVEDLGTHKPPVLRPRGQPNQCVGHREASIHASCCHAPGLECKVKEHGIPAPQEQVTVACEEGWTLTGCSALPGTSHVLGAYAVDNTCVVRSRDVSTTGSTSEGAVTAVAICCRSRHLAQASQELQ

Fab IC50 (nM), inhibition of PCSK9 on LDL uptake [nM]	Binder
26.8	AX210 Fab (Fab, V domains shown) VH: QVQLLESGGGLVQPGGSLRLSCKASGYTFSSYSIYWVRQAPGKGLEWIGWIDPGNGGTRYNQKFQSKATISRDNSKNTLYLQMNSLRAEDTAVYYCARARVGYSLDYWGQGTLVTVSS VL: EIVLTQSPATLSLSPGERATITCRASQYVGSYLNWYQQKPGQAPRLLIYDASNRATGIPARFSGSGSGTDFTLTISSLEPEDFAVYYCQVWDSSPPVVFGGGTKVEIK

molecular target: T1, human PCSK9 (human, UniProt Q8NBP7 31-692); experiment: SPR (Biacore), Fab captured by anti-Fab IgG, 1:1 fit
T1 construct: also called hPCSK9; proprotein convertase subtilisin-kexin type 9
Protocol: Biacore assay was developed. First, goat anti-Fab IgGs were immobilized onto CM5 chip by amine coupling as described above. The anti-Fab IgGs were diluted to 200 μg/ml in pH 5/10 mM Acetate solution, and injected onto the NHS/EDC activated surface to achieve an immobilization level of ˜10,000 RU, followed with surface inactivation by injection of Ethanolamine. Then Fab samples at concentration of 2 μg/ml in HBS-P running buffer were injected for 3 minutes at flow speed of 20 ul/min, followed with K-injection (3 minutes injection for association and 6 minutes for dissociation) of PCSK9 at concentration of 10 to 100 nM. The sensor chip surface was regenerated by 30 second injection of 100 mM phosphoric acid. The binding sensorgrams were fitted with 1:1 Langmuir binding model to determine the binding affinity.
T1 sequence (Q8NBP7 31-692 limits assumed): as the sequence (Q8NBP7 31-692 limits assumed) above

Binder	Kd [nM]	koff [s⁻¹]	kon [M⁻¹ s⁻¹]
AX139 Fab (Fab, V domains shown, Tested as purified Fab) VH: EVQLLESGGGLVQPGGSLRLSCKASGYTFSSYGMYWVRQAPGKGLEWIGWIDPGSGGTKYNEKFKGKATISRDNSKNTLYLQMNSLRAEDTAVYYCARERYGYYFDYWGQGTLVTVSS VL: EIVLTQSPATLSLSPGERATITCRASQYVGSYLNWYQQKPGQAPRLLIYDAANRATGIPARFSGSGSGTDFTLTISSLEPEDFAVYYCQVWDSSPPVVFGGGTKVEIK	13.2	0.00118	89700
AX137 Fab (Fab, V domains shown, Tested as purified Fab) VH: EVQLLESGGGLVQPGGSLRLSCKASGYTFSSYGMYWVRQAPGKGLEWIGWIDPGSGGTKYNEKFKGKATISRDNSKNTLYLQMNSLRAEDTAVYYCARERYGYYFDYWGQGTLVTVSS VL: EIVLTQSPATLSLSPGERATITCRASQYIGSYLNWYQQKPGQAPRLLIYDASNRATGIPARFSGSGSGTDFTLTISSLEPEDFAVYYCQAWDSSPPVVFGGGTKVEIK	19.5	0.00208	107000
AX114 Fab (Fab, V domains shown, Tested as purified Fab from E. coli TG1) VH: EVQLLESGGGLVQPGGSLRLSCKASGYTFSSYGMYWVRQAPGKGLEWIGWIDPGSGGTKYNEKFKGKATISRDNSKNTLYLQMNSLRAEDTAVYYCARERYGYYFDYWGQGTLVTVSS VL: EIVLTQSPATLSLSPGERATITCRASQYVGTYLNWYQQKPGQAPRLLIYDASNRATGIPARFSGSGSGTDFTLTISSLEPEDFAVYYCQVWDSSPPVAFGGGTKVEIK	48.5	0.00348	71700

Other lines, results leading:

Kd [nM]	koff [s⁻¹]	kon [M⁻¹ s⁻¹]	Binder
1.67	0.000287	172000	AX210 Fab (Fab, V domains shown, Tested as purified Fab) VH: QVQLLESGGGLVQPGGSLRLSCKASGYTFSSYSIYWVRQAPGKGLEWIGWIDPGNGGTRYNQKFQSKATISRDNSKNTLYLQMNSLRAEDTAVYYCARARVGYSLDYWGQGTLVTVSS VL: EIVLTQSPATLSLSPGERATITCRASQYVGSYLNWYQQKPGQAPRLLIYDASNRATGIPARFSGSGSGTDFTLTISSLEPEDFAVYYCQVWDSSPPVVFGGGTKVEIK
1.47	0.000233	159000	AX212 Fab (Fab, V domains shown, Tested as purified Fab) VH: QVQLLESGGGLVQPGGSLRLSCKASGYTFSSYSFSWVRQAPGKGLEWIGYIDPGSGGTKYNQKFQGKATISRDNSKNTLYLQMNSLRAEDTAVYYCARQRVGYSLDYWGQGTLVTVSS VL: EIVLTQSPATLSLSPGERATITCRASQYVGSYLNWYQQKPGQAPRLLIYDASNRATGIPARFSGSGSGTDFTLTISSLEPEDFAVYYCQVWDSSPPVVFGGGTKVEIK
1.37	0.000329	243000	AX213 Fab (Fab, V domains shown) VH: QVQLLESGGGLVQPGGSLRLSCKASGYTFSRYGINWVRQAPGKGLEWIGRIDPGNGGTRYNEKFKGKATISRDNSKNTLYLQMNSLRAEDTAVYYCARANDGYSFDYWGQGTLVTVSS VL: EIVLTQSPATLSLSPGERATITCRASQYVGSYLNWYQQKPGQAPRLLIYDASNRATGIPARFSGSGSGTDFTLTISSLEPEDFAVYYCQVWDSSPPVVFGGGTKVEIKR
1.67	0.000329	197000	AX211 Fab (Fab, V domains shown, Tested as purified Fab) VH: QVQLLESGGGLVQPGGSLRLSCKASGYTFSRQGFTWVRQAPGKGLEWIGWIDPGNGGTRYNEKFKGKATISRDNSKNTLYLQMNSLRAEDTAVYYCARYRVGYSLDYWGQGTLVTVSS VL: EIVLTQSPATLSLSPGERATITCRASQYVGSYLNWYQQKPGQAPRLLIYDASNRATGIPARFSGSGSGTDFTLTISSLEPEDFAVYYCQVWDSSPPVVFGGGTKVEIK

molecular target: T2, human PCSK9 (human, UniProt Q8NBP7 31-692); experiment: SPR (Biacore), IgG captured by anti-human IgG, PCSK9 injected at 3.75-60 nM
T2 construct: Secreted PCSK9 is autocleaved into prodomain and mature chain, and a His-tag is named for the HEK293 constructs; also called hPCSK9; proprotein convertase subtilisin-kexin type 9
Protocol: The affinities of those IgG molecules were also measured by Biacore assay. Briefly, anti-human IgG monoclonal antibody form Human Antibody Capture Kit provided by Biacore was immobilized on CM5 chips at level of 8000 to 10000 RU. The IgG samples at concentration of ˜0.4 μg/ml was injected onto a sensor chip for 2 minutes at a flow rate of 20 μl/min, then PCSK9 proteins at 5 concentrations (3.75 to 60 nM) were injected onto an IgG captured flow cell for binding kinetic analysis. After each round injection, the sensor chip surface was regenerated by 30 second injection of 3M Magnesium Chloride.
T2 sequence (Q8NBP7 31-692 limits assumed): as the sequence (Q8NBP7 31-692 limits assumed) above

Binder	Kd [nM]	koff [s⁻¹]	kon [M⁻¹ s⁻¹]
AX114 IgG (antibody, V domains shown, Purified IgG; also called AX114-IgG2) VH: EVQLLESGGGLVQPGGSLRLSCKASGYTFSSYGMYWVRQAPGKGLEWIGWIDPGSGGTKYNEKFKGKATISRDNSKNTLYLQMNSLRAEDTAVYYCARERYGYYFDYWGQGTLVTVSS VL: EIVLTQSPATLSLSPGERATITCRASQYVGTYLNWYQQKPGQAPRLLIYDASNRATGIPARFSGSGSGTDFTLTISSLEPEDFAVYYCQVWDSSPPVAFGGGTKVEIK	24	0.00361	151000
AX210 IgG (antibody, V domains shown, Purified IgG) VH: QVQLLESGGGLVQPGGSLRLSCKASGYTFSSYSIYWVRQAPGKGLEWIGWIDPGNGGTRYNQKFQSKATISRDNSKNTLYLQMNSLRAEDTAVYYCARARVGYSLDYWGQGTLVTVSS VL: EIVLTQSPATLSLSPGERATITCRASQYVGSYLNWYQQKPGQAPRLLIYDASNRATGIPARFSGSGSGTDFTLTISSLEPEDFAVYYCQVWDSSPPVVFGGGTKVEIK	2.64	0.000621	235000
AX137 IgG (antibody, V domains shown, Purified IgG) VH: EVQLLESGGGLVQPGGSLRLSCKASGYTFSSYGMYWVRQAPGKGLEWIGWIDPGSGGTKYNEKFKGKATISRDNSKNTLYLQMNSLRAEDTAVYYCARERYGYYFDYWGQGTLVTVSS VL: EIVLTQSPATLSLSPGERATITCRASQYIGSYLNWYQQKPGQAPRLLIYDASNRATGIPARFSGSGSGTDFTLTISSLEPEDFAVYYCQAWDSSPPVVFGGGTKVEIK	9.98	0.00332	333000

Other lines, results leading:

Kd [nM]	koff [s⁻¹]	kon [M⁻¹ s⁻¹]	Binder
1.63	0.000589	361000	AX211 IgG (antibody, V domains shown, Purified IgG) VH: QVQLLESGGGLVQPGGSLRLSCKASGYTFSRQGFTWVRQAPGKGLEWIGWIDPGNGGTRYNEKFKGKATISRDNSKNTLYLQMNSLRAEDTAVYYCARYRVGYSLDYWGQGTLVTVSS VL: EIVLTQSPATLSLSPGERATITCRASQYVGSYLNWYQQKPGQAPRLLIYDASNRATGIPARFSGSGSGTDFTLTISSLEPEDFAVYYCQVWDSSPPVVFGGGTKVEIK
2.12	0.000324	153000	AX212 IgG (antibody, V domains shown, Purified IgG) VH: QVQLLESGGGLVQPGGSLRLSCKASGYTFSSYSFSWVRQAPGKGLEWIGYIDPGSGGTKYNQKFQGKATISRDNSKNTLYLQMNSLRAEDTAVYYCARQRVGYSLDYWGQGTLVTVSS VL: EIVLTQSPATLSLSPGERATITCRASQYVGSYLNWYQQKPGQAPRLLIYDASNRATGIPARFSGSGSGTDFTLTISSLEPEDFAVYYCQVWDSSPPVVFGGGTKVEIK
2.07	0.00073	353000	AX213 IgG (antibody, V domains shown) VH: EVQLLESGGGLVQPGGSLRLSCKASGYTFSRYGINWVRQAPGKGLEWIGRIDPGNGGTRYNEKFKGKATISRDNSKNTLYLQMNSLRAEDTAVYYCARANDGYSFDYWGQGTLVTVSS VL: EIVLTQSPATLSLSPGERATITCRASQYVGSYLNWYQQKPGQAPRLLIYDASNRATGIPARFSGSGSGTDFTLTISSLEPEDFAVYYCQVWDSSPPVVFGGGTKVEIKR
